# Test results published in patent US20200121803A1 (published 2020).
# T1: human CD98, endogenously expressed on Molt-4 human acute lymphoblastic leukemia cells (human)
# T1 chain: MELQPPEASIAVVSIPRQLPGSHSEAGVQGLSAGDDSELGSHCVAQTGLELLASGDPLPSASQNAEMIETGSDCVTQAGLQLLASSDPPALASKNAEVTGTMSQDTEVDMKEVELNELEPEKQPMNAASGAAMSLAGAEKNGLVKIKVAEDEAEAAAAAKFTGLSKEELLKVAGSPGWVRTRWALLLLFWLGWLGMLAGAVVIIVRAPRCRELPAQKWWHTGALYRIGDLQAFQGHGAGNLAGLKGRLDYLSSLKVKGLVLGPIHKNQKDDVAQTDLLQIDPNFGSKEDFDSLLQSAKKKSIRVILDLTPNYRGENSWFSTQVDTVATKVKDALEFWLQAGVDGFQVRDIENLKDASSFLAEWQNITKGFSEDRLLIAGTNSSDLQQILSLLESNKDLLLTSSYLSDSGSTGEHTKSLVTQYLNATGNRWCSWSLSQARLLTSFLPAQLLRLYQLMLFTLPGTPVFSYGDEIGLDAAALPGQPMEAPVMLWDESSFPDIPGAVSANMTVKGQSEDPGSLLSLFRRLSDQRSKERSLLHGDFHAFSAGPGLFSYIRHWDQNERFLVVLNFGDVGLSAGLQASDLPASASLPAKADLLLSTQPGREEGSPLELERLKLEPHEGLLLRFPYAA
# T2: human CD98 on the cell surface (human)
# T2 chain: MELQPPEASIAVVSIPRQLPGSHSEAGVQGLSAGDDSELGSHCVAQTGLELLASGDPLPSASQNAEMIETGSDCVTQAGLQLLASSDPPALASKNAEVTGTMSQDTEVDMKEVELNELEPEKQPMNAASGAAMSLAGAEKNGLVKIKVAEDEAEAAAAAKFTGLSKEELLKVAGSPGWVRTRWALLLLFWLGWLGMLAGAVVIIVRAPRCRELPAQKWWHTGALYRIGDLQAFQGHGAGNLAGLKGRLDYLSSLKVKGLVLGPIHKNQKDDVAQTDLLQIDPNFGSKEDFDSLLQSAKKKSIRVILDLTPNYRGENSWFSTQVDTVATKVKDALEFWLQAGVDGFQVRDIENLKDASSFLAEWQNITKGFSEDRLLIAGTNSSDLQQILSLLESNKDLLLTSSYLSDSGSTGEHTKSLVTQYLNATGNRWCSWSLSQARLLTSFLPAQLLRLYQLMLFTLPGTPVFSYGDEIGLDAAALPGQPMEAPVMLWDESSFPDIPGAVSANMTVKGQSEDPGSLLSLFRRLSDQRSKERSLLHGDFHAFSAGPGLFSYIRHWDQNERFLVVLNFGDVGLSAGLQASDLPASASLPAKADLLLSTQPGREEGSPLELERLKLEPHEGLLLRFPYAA
# Molecular target: T1, human CD98, endogenously expressed on …
# Experiment: cell-based or functional assay
"Molt4 IC50 (nM), 50% inhibition of cell proliferation, 72 h, ATPlite [nM]",Binder,% Cell Viability at 50 nM (Molt-4) [%]
1.21,"CD98 (CL-huAb102)-YG (antibody, human IgG1, kappa, L234A L235A, V domains shown, synthon YG on reduced cysteine (see heavy chain); Bcl-xL inhibitor synthon YG on cysteines freed by TCEP reduction (Method E); DAR 1.1 by MS for the whole ADC) VH: EVQLVESGGGLVQPGGSLRLSCATSGFTFIDYYMSWVRQAPGKGLEWLGFIRNKANRYTTEYSASVKGRFTISRDNSKSILYLQMNSLKTEDTAVYYCTRDRPAWFVYWGQGTLVTVSS VL: DIVMTQTPLSLPVTPGEPASISCKSSQSLLYSSNQKNYLAWYLQKPGQSPQLLIYWASTRESGVPDRFSGSGSGTDFTLKISRVEAEDVGVYYCQQYYSYPYTFGGGTKVEIKR",31.9
0.062,"CD98 (CL-huAb102)-KZ (antibody, human IgG1, kappa, L234A L235A, V domains shown, synthon KZ on reduced cysteine (see heavy chain); Bcl-xL inhibitor synthon KZ on cysteines freed by TCEP reduction (Method A); DAR 2.8 by MS for the whole ADC) VH: EVQLVESGGGLVQPGGSLRLSCATSGFTFIDYYMSWVRQAPGKGLEWLGFIRNKANRYTTEYSASVKGRFTISRDNSKSILYLQMNSLKTEDTAVYYCTRDRPAWFVYWGQGTLVTVSS VL: DIVMTQTPLSLPVTPGEPASISCKSSQSLLYSSNQKNYLAWYLQKPGQSPQLLIYWASTRESGVPDRFSGSGSGTDFTLKISRVEAEDVGVYYCQQYYSYPYTFGGGTKVEIKR",20.7
0.35,"CD98 (CL-huAb102)-KZ (second row with this label, r76, DAR 2.2) (antibody, human IgG1, kappa, L234A L235A, V domains shown, synthon KZ on reduced cysteine (see heavy chain); Bcl-xL inhibitor synthon KZ on cysteines freed by TCEP reduction (Method A); DAR 2.2 by MS for the whole ADC) VH: EVQLVESGGGLVQPGGSLRLSCATSGFTFIDYYMSWVRQAPGKGLEWLGFIRNKANRYTTEYSASVKGRFTISRDNSKSILYLQMNSLKTEDTAVYYCTRDRPAWFVYWGQGTLVTVSS VL: DIVMTQTPLSLPVTPGEPASISCKSSQSLLYSSNQKNYLAWYLQKPGQSPQLLIYWASTRESGVPDRFSGSGSGTDFTLKISRVEAEDVGVYYCQQYYSYPYTFGGGTKVEIKR",16.2
0.089,"CD98 (CL-huAb104)-KZ (antibody, human IgG1, kappa, L234A L235A, V domains shown, synthon KZ on reduced cysteine (see heavy chain); Bcl-xL inhibitor synthon KZ on cysteines freed by TCEP reduction (Method A); DAR 2.6 by MS for the whole ADC) VH: EVQLVESGGGLVQPGGSLRLSCATSGFTFIDYYMSWVRQAPGKGLEWLGFIRNKAYGYTTEYSASVKGRFTISRDNSKSILYLQMNSLKTEDTAVYYCTRDRPAWFVYWGQGTLVTVSS VL: DIVMTQTPLSLPVTPGEPASISCKSSQSLLYSSNQKNYLAWYLQKPGQSPQLLIYWASTRESGVPDRFSGSGSGTDFTLKISRVEAEDVGVYYCQQYYSYPYTFGGGTKVEIKR",21.2
2.67,"CD98 (CL-huAb104)-YG (antibody, human IgG1, kappa, L234A L235A, V domains shown, synthon YG on reduced cysteine (see heavy chain); Bcl-xL inhibitor synthon YG on cysteines freed by TCEP reduction (Method E); DAR 1.3 by MS for the whole ADC) VH: EVQLVESGGGLVQPGGSLRLSCATSGFTFIDYYMSWVRQAPGKGLEWLGFIRNKAYGYTTEYSASVKGRFTISRDNSKSILYLQMNSLKTEDTAVYYCTRDRPAWFVYWGQGTLVTVSS VL: DIVMTQTPLSLPVTPGEPASISCKSSQSLLYSSNQKNYLAWYLQKPGQSPQLLIYWASTRESGVPDRFSGSGSGTDFTLKISRVEAEDVGVYYCQQYYSYPYTFGGGTKVEIKR",25.3
0.493,"CD98 (CL-huAb110)-YG (antibody, human IgG1, kappa, L234A L235A, V domains shown, synthon YG on reduced cysteine (see heavy chain); Bcl-xL inhibitor synthon YG on cysteines freed by TCEP reduction (Method E); DAR 2.8 by MS for the whole ADC) VH: EVQLVQSGAEVKKPGASVKVSCKASGFTFSDYTMAWVRQAPGQGLEWVATIIYDARGTYYRDAVKGRFTITRDNSTSTLYLELSSLRSEDTAVYYCARQSDDTYYYWGYFDYWGQGTMVTVSS VL: DIVMTQTPLSLPVTPGEPASINCKSSQSLLFSGNQKNYLAWYLQKPGQSPQLLIYWASTRQSGVPDRFSGSGSGTDFTLKISRVEAEDVGIYYCQQYYSSPYTFGQGTKLEIKR",10

# Molecular target: T2, human CD98 on the cell surface
# Experiment: cell-based or functional assay
"ADC potency, IC50 (nM), H146 (SCLC) growth inhibition [nM]","ADC potency, IC50 (nM), H2170 (NSCLC) growth inhibition [nM]","ADC potency, IC50 (nM), MOLT4 (leukemia) growth inhibition [nM]",Binder
0.115,0.321,0.052,"ChAb13-CZ (other, synthon CZ on reduced interchain Cys of the constant regions (sites not numbered)) VH: QVQLKESGPGLVQPSQTLSLTCTVSGFSLSSYGVIWVRQPPGKGLEWMGIIWANGNTNYNSALKSRLSISRDTSKSQVYLKMNSLQTEDTATYYCARHYYDGTHYYGYFDYWGQGVMVTVSS VL: DTVMTQTPSSQAVSAGEKVTMSCKSSQSLLYSENKKKYLAWYQQKPGQSPKLLIYWASTRESGVPDRFIGSGSGTDFTLTISSVQAEDLAVYYCQQYYNFPYTFGAGTKLELK"
0.094,0.112,0.038,"ChAb8-CZ (other, synthon CZ on reduced interchain Cys of the constant regions (sites not numbered)) VH: EVQLVESGGGLVQPGRSLKLSCAASGFTFSDYAMAWVRQAPKKGLEWVASIIYDGRGTYYRDSVKGRFTISRDNAKSTLYLQMDSLRSEDTATYYCARQGDGTYYYWGYFDYWGQGVMVTVSS VL: DIVMTQSPSSLAVSAGETVTINCKSSQSLLSSGNQKNYLAWYQQKPGQSPKLLIYWASTRQSGVPDRFIGSGSGTDFTLTINSVQAEDLAIYYCQQYYDTPYTFGAGTKLELK"
